Measured values from patent US20230165967A1 (TAE LIFE SCIENCES, published 2023).
Read-outs that look alike come from different tables or passages of the source.

Experiments:
[1] = biological target: T1, recombinant human soluble ECD of CD64/FCGRIA (human, UniProt P12314 16-292); test: ELISA: plate coated with recombinant human CD64/FCGRIA ECD, antibody titrated, HRP goat anti-human Fc, OD650
T1 construct: extracellular domain; also called FcγRI

[2] = biological target: T2, recombinant human FcRn (Sino Biological) (human, UniProt P55899 24-297; P61769 21-119); test: ELISA at pH 6.0: plate coated with recombinant human FcRn, antibody titrated, HRP goat anti-human Fc, OD650
T2 sequence (P55899 24-297 limits assumed, chain 1 of 2): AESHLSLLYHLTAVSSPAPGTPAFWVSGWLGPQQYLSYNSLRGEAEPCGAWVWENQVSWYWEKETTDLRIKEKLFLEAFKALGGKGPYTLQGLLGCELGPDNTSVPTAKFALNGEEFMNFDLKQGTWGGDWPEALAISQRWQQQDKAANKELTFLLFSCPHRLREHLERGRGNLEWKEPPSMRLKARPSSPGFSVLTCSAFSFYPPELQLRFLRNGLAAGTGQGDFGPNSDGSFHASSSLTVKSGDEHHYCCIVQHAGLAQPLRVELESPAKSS
T2 sequence (P61769 21-119 limits assumed, chain 2 of 2): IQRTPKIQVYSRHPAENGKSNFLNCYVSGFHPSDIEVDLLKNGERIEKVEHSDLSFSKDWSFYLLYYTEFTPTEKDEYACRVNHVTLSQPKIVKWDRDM

[3] = biological target: T3, recombinant human soluble ECD of hCD16a/FCGRIIIA (human, UniProt P08637 17-208); test: ELISA: plate coated with recombinant human CD16a/FCGRIIIA ECD, antibody titrated 0.005-80 ug/ml, HRP goat anti-human Fc, OD650
T3 construct: extracellular domain; also called FcγRIIIa
T3 sequence (P08637 17-208): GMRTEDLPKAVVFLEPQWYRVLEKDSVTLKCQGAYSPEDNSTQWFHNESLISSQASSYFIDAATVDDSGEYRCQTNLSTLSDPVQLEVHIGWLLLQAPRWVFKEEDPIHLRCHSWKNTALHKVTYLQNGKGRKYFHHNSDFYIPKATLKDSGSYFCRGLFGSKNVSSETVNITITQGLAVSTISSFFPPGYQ

[4] = biological target: T4, FcγRIIa (CD32) (Sino Biological, cat #10374-H08H) (UniProt P12318 34-218); test: Sandwich ELISA: anti-His capture of His-tagged FcγRIIA mixed with titrated antibody, HRP goat anti-human IgG Fc, OD650
T4 sequence (looked up): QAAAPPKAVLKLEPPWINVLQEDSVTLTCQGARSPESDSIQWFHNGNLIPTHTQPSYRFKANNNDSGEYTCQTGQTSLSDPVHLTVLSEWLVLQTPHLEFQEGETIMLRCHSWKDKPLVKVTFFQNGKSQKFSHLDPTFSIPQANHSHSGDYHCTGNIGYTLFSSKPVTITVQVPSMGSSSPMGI

[5] = biological target: T1, recombinant human soluble ECD of …; test: ELISA: plate coated with recombinant human CD64/FCGRIA ECD, antibody titrated, HRP goat anti-human Fc, OD650; remark: listed apart in the source
[6] = biological target: T3, recombinant human soluble ECD of …; test: ELISA: plate coated with recombinant human CD16a/FCGRIIIA ECD, antibody titrated 0.005-80 ug/ml, HRP goat anti-human Fc, OD650; remark: listed apart in the source
[7] = biological target: T2, recombinant human FcRn (Sino Biological); test: ELISA at pH 6.0: plate coated with recombinant human FcRn, antibody titrated, HRP goat anti-human Fc, OD650; remark: listed apart in the source
[8] = biological target: T5, human C1q (sigma Cat #C1740) (human, UniProt P02745 23-245; P02746 28-253; P02747 29-245); test: ELISA: plate coated with antibody at 1 ug/ml, human C1q titrated 0.625-40 ug/ml, rabbit anti-human C1q then HRP goat anti-rabbit, OD650
T5 sequence (P02745 23-245 limits assumed, chain 1 of 3): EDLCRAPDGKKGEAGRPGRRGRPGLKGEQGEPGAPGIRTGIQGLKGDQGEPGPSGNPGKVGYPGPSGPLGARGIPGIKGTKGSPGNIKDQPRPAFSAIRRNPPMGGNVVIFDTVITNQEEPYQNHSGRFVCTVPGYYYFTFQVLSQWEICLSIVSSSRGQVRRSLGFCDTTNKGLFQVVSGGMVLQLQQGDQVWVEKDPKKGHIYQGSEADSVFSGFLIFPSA
T5 sequence (P02746 28-253 limits assumed, chain 2 of 3): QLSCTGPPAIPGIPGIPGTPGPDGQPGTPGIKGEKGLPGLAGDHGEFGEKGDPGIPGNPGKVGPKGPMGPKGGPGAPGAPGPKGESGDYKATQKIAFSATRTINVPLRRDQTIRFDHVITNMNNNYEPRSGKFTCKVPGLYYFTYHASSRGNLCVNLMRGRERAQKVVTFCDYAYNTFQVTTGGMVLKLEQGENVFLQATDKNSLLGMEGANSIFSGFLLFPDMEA
T5 sequence (P02747 29-245 limits assumed, chain 3 of 3): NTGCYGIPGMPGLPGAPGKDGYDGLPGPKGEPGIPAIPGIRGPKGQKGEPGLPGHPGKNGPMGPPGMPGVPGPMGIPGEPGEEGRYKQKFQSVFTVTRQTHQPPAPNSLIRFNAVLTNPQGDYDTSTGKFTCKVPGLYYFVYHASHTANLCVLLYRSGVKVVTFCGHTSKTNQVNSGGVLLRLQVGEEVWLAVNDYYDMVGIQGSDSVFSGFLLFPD

[9] = biological target: T6, recombinant human soluble extracellular domain (ECD) of Trop2 (human, UniProt P09758 27-274); test: ELISA: plate coated with recombinant human Trop2 ECD, antibody titrated 0.0003-20 nM, HRP goat anti-human Fc, OD650
T6 construct: extracellular domain; Bought protein
T6 sequence (looked up): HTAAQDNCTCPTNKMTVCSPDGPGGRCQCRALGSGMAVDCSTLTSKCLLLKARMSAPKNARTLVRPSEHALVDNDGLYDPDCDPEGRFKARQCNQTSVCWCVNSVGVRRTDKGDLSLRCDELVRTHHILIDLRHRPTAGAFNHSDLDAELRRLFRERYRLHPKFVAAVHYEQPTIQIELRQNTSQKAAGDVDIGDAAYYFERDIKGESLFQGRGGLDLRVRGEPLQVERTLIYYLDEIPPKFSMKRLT

[10] = biological target: T2, recombinant human FcRn (Sino Biological); test: ELISA at pH 6.0: plate coated with recombinant human FcRn, antibody titrated, HRP goat anti-human Fc, OD650; remark: listed apart in the source
[11] = biological target: T4, FcγRIIa (CD32) (Sino Biological, cat …); test: Sandwich ELISA: anti-His capture of His-tagged FcγRIIA mixed with titrated antibody, HRP goat anti-human IgG Fc, OD650; remark: listed apart in the source
[12] = biological target: T1, recombinant human soluble ECD of …; test: ELISA: plate coated with recombinant human CD64/FCGRIA ECD, antibody titrated, HRP goat anti-human Fc, OD650; remark: listed apart in the source
[13] = biological target: T3, recombinant human soluble ECD of …; test: ELISA: plate coated with recombinant human CD16a/FCGRIIIA ECD, antibody titrated 0.005-80 ug/ml, HRP goat anti-human Fc, OD650; remark: listed apart in the source
[14] = biological target: T7, recombinant human CDH3 full-length (human, UniProt P22223 25-829, limits assumed); test: ELISA: plate coated with recombinant human full-length CDH3, antibody titrated 0.0003-20 nM, HRP goat anti-human Fc, OD650
T7 construct: plate-coated recombinant protein, not on cells

[15] = biological target: T5, human C1q (sigma Cat #C1740); test: ELISA: plate coated with antibody at 1 ug/ml, human C1q titrated 0.625-40 ug/ml, rabbit anti-human C1q then HRP goat anti-rabbit, OD650; remark: listed apart in the source

T1 sequence (P12314 16-292): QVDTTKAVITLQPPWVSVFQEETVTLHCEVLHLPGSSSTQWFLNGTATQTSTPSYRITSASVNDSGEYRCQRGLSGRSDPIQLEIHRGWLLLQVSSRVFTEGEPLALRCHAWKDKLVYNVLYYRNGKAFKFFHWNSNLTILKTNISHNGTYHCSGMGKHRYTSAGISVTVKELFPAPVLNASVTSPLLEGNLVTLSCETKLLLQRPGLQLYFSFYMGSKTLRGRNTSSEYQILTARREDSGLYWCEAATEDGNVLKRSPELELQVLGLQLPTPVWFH

B1: Anti-EGFR Ab No. 3 Wild Type (antibody, human IgG1)
heavy: not shown
light: DIQMTQSPSSLSASVGDRVTITCRSSQNIVHSNGNTYLDWYQQTPGKAPKLLIYKVSNRFSGVPSRFSGSGSGTDFTFTISSLQPEDIATYYCFQYSHVPWTFGQGTKLQITREVAAPSVFIFPPSDEQLKSGTASVVCLLNNFYPREAKVQWKVDNALQSGNSQESVTEQDSKDSTYSLSSTLTLSKADYEKHKVYACEVTHQGLSSPVTKSFNRGEC
notes: human IgG1 constant region; also called Anti-EGFR Mab No. 3; anti-EGFR mAb No. 3
Q: For B1, which “EC50 (read off the curve)” value [1] is on record?
A: ~0.05 µg/mL

Q: Does B1 bind [2]?
A: binds

Q: What about the “EC50 (read off the curve)” value [3] of the same binder?
A: ~2 µg/mL

B2: Anti-EGFR Ab No. 3 L234A, L235A (antibody, human IgG1, L234A L235A)
heavy: not shown
light: B1 light
notes: Fc variant; wild-type light chain; also called Anti-EGFR Mab No. 3 double mutant; double mutation L234A and L235A
Q: What does the source list for B2?
A: EC50 (read off the curve) [1]: ~4 µg/mL; binding result [2]: binds

B3: Anti-EGFR Ab No. 3 L234A, L235A, L328C (antibody, human IgG1, L234A L235A)
heavy: QVQLQQSGAEVKKPGSSVKVSCKASGYTFTNYYIYWVRQAPGQGLEWIGGINPTSGGSNFNEKFKTRVTITADESSTTAYMELSSLRSEDTAFYFCTRQGLWFDSDGRGFDFWGQGTTVTVSSASTKGPSVFPLAPSSKSTSGGTAALGCLVKDYFPEPVTVSWNSGALTSGVHTFPAVLQSSGLYSLSSVVTVPSSSLGTQTYICNVNHKPSNTKVDKRVEPKSCDKTHTCPPCPAPEAAGGPSVFLFPPKPKDTLMISRTPEVTCVVVDVSHEDPEVKFNWYVDGVEVHNAKTKPREEQYNSTYRVVSVLTVLHQDWLNGKEYKCKVSNKACPAPIEKTISKAKGQPREPQVYTLPPSREEMTKNQVSLTCLVKGFYPSDIAVEWESNGQPENNYKTTPPVLDSDGSFFLYSKLTVDKSRWQQGNVFSCSVMHEALHNHYTQKSLSLSPGK
light: B1 light
notes: Fc variant; wild-type light chain, this heavy chain reads VDKRV where the wild type reads VDKKV; also called Anti-EGFR Mab No. 3 triple mutant; triple mutation L234A, L235A, and L328C
Q: Does B3 bind [3]?
A: no binding (tested: 80 ug/mL)

B4: Anti-EGFR Ab No. 3 L328C (antibody, human IgG1)
heavy: not shown
light: B1 light
notes: Fc variant; wild-type light chain, this heavy chain reads VDKRV where the wild type reads VDKKV; also called Anti-EGFR Mab No. 3 single mutant; single mutation L328C
Q: For B4, which “EC50 (read off the curve)” value [1] is on record?
A: ~0.1 µg/mL

B5: Anti-Trop2 Ab Wild Type (antibody, human IgG1, kappa)
heavy: not shown
light: DIQLTQSPSSLSASVGDRVSITCKASQDVSIAVAWYQQKPGKAPKLLIYSASYRYTGVPDRFSGSGSGTDFTLTISSLQPEDFAVYYCQQHYITPLTFGAGTKVEIKRTVAAPSVFIFPPSDEQLKSGTASVVCLLNNFYPREAKVQWKVDNALQSGNSQESVTEQDSKDSTYSLSSTLTLSKADYEKHKVYACEVTHQGLSSPVTKSFNRGEC
notes: human IgG1 constant region; also called Anti-Trop2 Mab; anti-TROP2 mAb
Q: What does the source list for B5?
A: binding result [4]: binds; EC50 (read off the curve) [5]: ~0.08 µg/mL; EC50 (read off the curve) [6]: ~2 µg/mL; binding result [7]: binds; binding result [8]: binds; EC50 (read off the curve) [9]: ~0.06 nM

B6: Anti-Trop2 Ab L234A, L235A (antibody, human IgG1, kappa, L234A L235A)
heavy: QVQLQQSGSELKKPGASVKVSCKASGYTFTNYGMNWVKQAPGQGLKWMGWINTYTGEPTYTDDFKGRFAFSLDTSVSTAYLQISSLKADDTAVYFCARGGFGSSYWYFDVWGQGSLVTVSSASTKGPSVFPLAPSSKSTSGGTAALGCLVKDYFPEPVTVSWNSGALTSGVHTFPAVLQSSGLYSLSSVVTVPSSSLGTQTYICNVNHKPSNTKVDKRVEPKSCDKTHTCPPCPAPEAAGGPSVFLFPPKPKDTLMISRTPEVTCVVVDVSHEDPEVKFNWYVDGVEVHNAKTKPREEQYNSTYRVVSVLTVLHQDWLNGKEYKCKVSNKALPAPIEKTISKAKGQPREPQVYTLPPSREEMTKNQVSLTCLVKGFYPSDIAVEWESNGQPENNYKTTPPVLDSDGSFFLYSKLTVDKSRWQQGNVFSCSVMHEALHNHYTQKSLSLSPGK
light: B5 light
notes: Fc variant; wild-type light chain; also called Anti-Trop2 Mab double mutant; double mutation L234A and L235A
Q: Does B6 bind [4]?
A: binds

Q: Does B6 bind [5]?
A: binds

Q: What about the “EC50 (read off the curve)” value [7] of the same binder?
A: ~1 µg/mL

Q: Does B6 bind [8]?
A: binds

Q: What about the “EC50 (read off the curve)” value [9] of the same binder?
A: ~0.06 nM

B7: Anti-Trop2 Ab L234A, L235A, L328C (antibody, human IgG1, kappa, L234A L235A)
heavy: QVQLQQSGSELKKPGASVKVSCKASGYTFTNYGMNWVKQAPGQGLKWMGWINTYTGEPTYTDDFKGRFAFSLDTSVSTAYLQISSLKADDTAVYFCARGGFGSSYWYFDVWGQGSLVTVSSASTKGPSVFPLAPSSKSTSGGTAALGCLVKDYFPEPVTVSWNSGALTSGVHTFPAVLQSSGLYSLSSVVTVPSSSLGTQTYICNVNHKPSNTKVDKRVEPKSCDKTHTCPPCPAPEAAGGPSVFLFPPKPKDTLMISRTPEVTCVVVDVSHEDPEVKFNWYVDGVEVHNAKTKPREEQYNSTYRVVSVLTVLHQDWLNGKEYKCKVSNKACPAPIEKTISKAKGQPREPQVYTLPPSREEMTKNQVSLTCLVKGFYPSDIAVEWESNGQPENNYKTTPPVLDSDGSFFLYSKLTVDKSRWQQGNVFSCSVMHEALHNHYTQKSLSLSPGK
light: B5 light
notes: Fc variant; wild-type light chain; also called Anti-Trop2 Mab triple mutant; triple mutation L234A, L235A, and L328C
Q: What does the source list for B7?
A: binding result [4]: binds; binding result [5]: no binding (tested: 30 ug/ml); binding result [6]: no binding (tested: 80 ug/ml); binding result [7]: binds; binding result [8]: binds; EC50 (read off the curve) [9]: ~0.06 nM

B8: Anti-Trop2 Ab L328C (antibody, human IgG1, kappa)
heavy: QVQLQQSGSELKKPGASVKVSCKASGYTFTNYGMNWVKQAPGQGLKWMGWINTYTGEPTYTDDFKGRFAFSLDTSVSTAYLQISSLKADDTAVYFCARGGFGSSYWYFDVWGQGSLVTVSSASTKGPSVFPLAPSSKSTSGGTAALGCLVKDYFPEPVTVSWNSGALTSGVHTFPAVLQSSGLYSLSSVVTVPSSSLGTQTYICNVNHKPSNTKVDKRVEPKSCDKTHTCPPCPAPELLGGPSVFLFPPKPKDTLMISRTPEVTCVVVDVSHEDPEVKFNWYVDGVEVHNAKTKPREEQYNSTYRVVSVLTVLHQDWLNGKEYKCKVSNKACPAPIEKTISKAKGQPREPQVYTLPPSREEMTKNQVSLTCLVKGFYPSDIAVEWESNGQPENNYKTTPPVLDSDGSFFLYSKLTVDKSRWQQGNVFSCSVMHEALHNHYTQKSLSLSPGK
light: B5 light
notes: Fc variant; wild-type light chain; also called Anti-Trop2 Mab single mutant; single mutation L328C
Q: Does B8 bind [4]?
A: binds

Q: And the “EC50 (read off the curve)” value [5]?
A: ~0.2 µg/mL

Q: Does B8 bind [7]?
A: binds

Q: Does B8 bind [8]?
A: binds

Q: And the “EC50 (read off the curve)” value [9]?
A: ~0.06 nM

B9: Anti-CDH3 Ab L234A, L235A, L328C (antibody, human IgG1, kappa, L234A L235A)
heavy: QVQLQQSGPGLVKPSQTLSLTCAISGDSVSSQSAAWNWIRQSPSRGLEWLGRIYYRSKWYNDYALSVKSRITINPDTSKNQFSLQLNSVTPEDTAVYYCARGEGYGREGFAIWGQGTLVTVSSASTKGPSVFPLAPSSKSTSGGTAALGCLVKDYFPEPVTVSWNSGALTSGVHTFPAVLQSSGLYSLSSVVTVPSSSLGTQTYICNVNHKPSNTKVDKRVEPKSCDKTHTCPPCPAPEAAGGPSVFLFPPKPKDTLMISRTPEVTCVVVDVSHEDPEVKFNWYVDGVEVHNAKTKPREEQYNSTYRVVSVLTVLHQDWLNGKEYKCKVSNKACPAPIEKTISKAKGQPREPQVYTLPPSREEMTKNQVSLTCLVKGFYPSDIAVEWESNGQPENNYKTTPPVLDSDGSFFLYSKLTVDKSRWQQGNVFSCSVMHEALHNHYTQKSLSLSPGK
light: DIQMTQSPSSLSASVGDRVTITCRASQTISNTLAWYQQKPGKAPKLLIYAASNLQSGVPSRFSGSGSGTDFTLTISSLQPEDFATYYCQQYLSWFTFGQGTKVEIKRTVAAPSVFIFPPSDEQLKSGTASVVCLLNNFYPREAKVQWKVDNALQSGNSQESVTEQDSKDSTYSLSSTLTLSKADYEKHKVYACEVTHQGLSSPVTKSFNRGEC
notes: Fc variant; wild-type light chain; also called Anti-CDH3 Mab triple mutant; triple mutation L234A, L235A, and L328C
Q: Does B9 bind [10]?
A: binds

Q: Does B9 bind [11]?
A: binds

Q: Does B9 bind [12]?
A: binds

Q: Does B9 bind [13]?
A: no binding (tested: 80 ug/ml)

Q: What about the “EC50 (read off the curve)” value [14] of the same binder?
A: ~0.04 nM

Q: Does B9 bind [15]?
A: binds
